The RNAGym collection of RNA variant scans (doi:10.1073/pnas.2313332121)

B1: TPR t1 (parent)
chain: GACCAAUCUGCCCUCAGAGCUCGAGAACAUCUUCGGAUGCAGAGGAGGCAGGCUUCGGUGGCGCGAUAGCGCCAACGUCCUCAACCUCCAAUGCAUCCCACCACAUGAUGAUGCCUGAAGAGCCUUGGUUUUUUG

Variants of: B1
Experiment: polymerase ribozyme fitness, log enrichment relative to wild type (log ratio); higher = more active; in vitro selection for triplet polymerase activity
In short: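 Streptavidin-bead capture of gel-excised extended constructs, followed by RT-PCR, closed a single triplicate in vitro selection round. That round began by annealing PCR-built, transcribed mutant libraries of each subunit of a heterodimeric triplet polymerase ribozyme with a biotinylated primer, the partner subunit and triplets, then incubating them frozen at −7 °C. After Illumina sequencing of inputs and outputs, genotypes needed ≥10 input reads and ≥1 read per output. Fitness is the base-2 logarithm of genotype enrichment over wild-type enrichment, using inverse-variance-weighted replicate averages.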

Row | Variant | polymerase ribozyme fitness (log ratio)
1 | C11A A91C | -2.43
2 | A29G C85G C88U | -2.58
3 | C49U A91U C115A | -2.58
4 | A37C G58A C72G U78C G113C | -3.84
5 | C12G C20A A26U | -5.8
6 | C62A A105U | -3.07
7 | C15G C53G G60A | -3.25
8 | U38A G52A U55G G128A | -2.73
9 | G60U C123G C124U | 2.24
10 | G60A C97A | -4.41
11 | A5U U54G C79A G110C | -6.31
12 | G10U G51A | -2.56
13 | C11A U87G C101G | -2.62
14 | C31U U112A | -3.16
15 | C72G G120C | 0.587
16 | U21A C97G | -4.44
17 | G47U G48U | -2.67
18 | A91C C104A | -3.58
19 | C12U G47U | -0.627
20 | G42U C56U G127U | -2.75
21 | C79A G110U | -3.48
22 | C40U G42U | -1.7
23 | A6U A83U C115U | -1.65
24 | C76A U81A C89U | -1.33

Row | Variant | polymerase ribozyme fitness (log ratio)
25 | A29G C115U | -1.56
26 | U21C U38G C49A G120U U130G U131G | -4.41
27 | C8A C13G | -0.0841
28 | G23A G61A | -4.6
29 | C3U G61A | -0.131
30 | U38G G127U G135U | -2.73
31 | C4G C13G C49A G60A | -4.79
32 | G35A G117U | -5.09
33 | C3U C124G | 2.17
34 | A74G A103G G117U U133G | -6.53
35 | C49A G71U U92A C123U | -2.65
36 | A29U G52A | -1.8
37 | A50U C102A | -2.99
38 | G44C C73U U112G G120U G127C | -5.16
39 | C34U A46U C56G C72U G120C | -5.35
40 | C13U C20G C62G C104A G110U A121U | -6.79
41 | C15A A91G C123A | -2.45
42 | C104A A119U | -2.35
43 | A2U U106A G128U U131C | -1.21
44 | A37U G47A G77A | -1.29
45 | C12U U116A | -1.04
46 | A2G A111C U112G G113U U116A C124A | -2.74
47 | G51U C56A C98U C99U C124A U131G | -6.41
48 | U33G G48U A105C U126G G127C | -6.34

Row | Variant | polymerase ribozyme fitness (log ratio)
49 | G69A U78C | -2.5
50 | A46U U78C | -1.07
51 | C80G U87A A90U A111C | -6.64
52 | C4U C13A C53U | -2.94
53 | C13G A84C C102U | -2.71
54 | G25C U116C | -5.31
55 | C15U G19U C124G | -2.54
56 | G19A G42U G45C A50U | -4.81
57 | U54G C85A | -1.99
58 | G60A G93C | -1.2
59 | C49A G63A C70A U109C | -7.14
60 | G69C A84G A118U G127A | -2.68
61 | A103U G120A C123U | -4.53
62 | G52A U133A | -0.415
63 | A41U C49G G52U U112C | -1.09
64 | C12G G44A G63A U112G G122U G135U | -2.91
65 | C8U G77A | 0.143
66 | C97U C104U A111U C124A | -2.15
67 | C13U U54A | 1.21
68 | G25A C72U C124A | -6.83
69 | A37G A43U G44U C72U U87C C104U U129G | -2.31
70 | C115A A118G | -0.852
71 | U7G C20A G39A C49G A121G | -2.45
72 | C72U A105U U131C U132A | -2.36

Row | Variant | polymerase ribozyme fitness (log ratio)
73 | U55A G69C U87G G93U | -1.37
74 | U9G C80U U106C | 0.49
75 | C28G A29C A95G C98U G107A U112A | -5.27
76 | C8A G63A C98A | -5.9
77 | U9G C56G U81G | -1.23
78 | A6U C89U | -0.0502
79 | C12A C40U | -1.32
80 | C13A C99A | -6.93
81 | A50C U55G G58C U81A C124A | 1.51
82 | C8G A41G G58C A83G G110U A121G | -4.41
83 | G39C U126A | -2.89
84 | C76U U81C A100U G110A | -3.78
85 | G77C U81G | -1.57
86 | A37U U131A | -0.895
87 | A16G A41U C72U U106C G120C | -1.7
88 | C76G G120U U129A | -1.93
89 | C8G C15G U21C G36A C82U U112A | -1.27
90 | U7G G107U A121U G128C | -5.22
91 | C49G G93C | -1.06
92 | C13G C40A A84U U106A | -3.53
93 | A41C U55G U59C G93C | -2.33
94 | C8U G93C G120A | 1.29
95 | C72U C80U | -1.08
96 | C49U U55A C62U C99U A111U | -7.19

Row | Variant | polymerase ribozyme fitness (log ratio)
97 | C15A U55G G71A C88A | -2.35
98 | G47C C123G U133A | -0.852
99 | A2G G77U C82G | -0.807
100 | C8G A50G | 0.932
101 | G39C A43U C85A U112A C115U U130C | -4.22
102 | C49A G127U | -1.02
103 | C72G G122A C123G | 1.99
104 | G52A C104U G113C | -2.55
105 | A5G C88A G107A C114U | -3.65
106 | C86A G113C | -3.02
107 | C11G G17A C72A C124U | -3.65
108 | U38A G60U C62A C115G | -6.12
109 | A95C G113U | -3.39
110 | C12A C114A | -1.3
111 | U9C C11U | 0.404
112 | G48A C64G U81A C89A | -7.34
113 | G47U C73U | -1.42
114 | G44U C72G U92A C115G | -5.53
115 | A50G C53A C70G | -2.47
116 | A50U C62U U106A | -1.01
117 | C13A C72G | -1.85
118 | G10U C13A G48U C94U U132A | -0.329
119 | C34U G52U | -5.84
120 | G51U G61U G127A | -4.92

Row | Variant | polymerase ribozyme fitness (log ratio)
121 | A16U A37U | -2.13
122 | C13A C76U C82A A103U G110C C114A G117C C123U | -7
123 | C22U C89U | -3.61
124 | C82G C124U | 1.29
125 | G44C U106C G135C | -1.28
126 | C31A G45C C49U G69U C82U G107A | -5.05
127 | C4U A27U | -2.79
128 | G42C G61U G120A | -0.458
129 | A29U G44A C101U | -4.87
130 | A5C C15A C62G A100U G117U | -4.14
131 | A18U A111C | -2.74
132 | G52C C53U G71U | -0.538
133 | C11U G77A | -1.92
134 | A5U G10U C49G C62G | -4.17
135 | C15G G61U U78C C101A | -3.49
136 | C56U C72G A83G C123U | -1.18
137 | C8U C64U C72A U109A | -4.83
138 | C11G U21A C49U G117C | -4.04
139 | U7G U54C G58A U92C | -0.551
140 | A18C C49A G60U U106A A111C | -5.37
141 | C49G U112G U129G | -0.483
142 | C13U C56U C124G U131C | 2.69
143 | C11U A18C A27U A46U | -7.63
144 | G93C A111U | -5.12

Row | Variant | polymerase ribozyme fitness (log ratio)
145 | G47A C104U | -1.4
146 | C3U A6U G48A C115U | -2.28
147 | C11U C124G | 1.46
148 | U9G C22G C34G G69U | -3.72
149 | C70G C97U | -2.56
150 | C49G G52A C53U A84G C85U C94U | -1.34
151 | A16U G36A G44U A83C | -5.08
152 | A16G A91U G113U | -2.28
153 | C34A G60C | -3.4
154 | G23U C72U | -6.65
155 | G19C G45A C72A G120C | -1.67
156 | U9C A37C C114G G117U | -3.29
157 | C56A C94G C101A U116G | -4.75
158 | A41C C98U G117A | -5.3
159 | C72U U78C | -0.528
160 | U21A A74C C98A C114G U133G | -7.51
161 | U55G G58A U130A | -0.383
162 | C11G G17U A91C G117A | -1.55
163 | A6G C72G G117U A121U G127A | -2.18
164 | C15G U32C C49U U87G | -3.89
165 | C11U C114A C123U | -2.21
166 | C40U G63C C80U | -1.53
167 | G47C C56U C73U A105U | -4.05
